The supplement of paper PMC7125110
± gives the standard error. Variants at the floor of the assay were thinned out.

B1: glmS ribozyme (parent)
chain: AUAAAAGCGCCAGAACUACAGAAAUGUAGUUGACGAGGAGGAGGUUUAUCGAAUUUUCGGCGGAUGCCUCCAAA

What was measured:
Settings in all cases: with glucosamine-6-phosphate
[1] = variants of: B1; experiment: self-cleavage kobs at 40 uM GlcN6P; higher = faster cleavage; RNA array
Procedure, shortened: (§1)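 Barcoded ribozyme variants were transcribed in situ on sequenced MiSeq chips by E. coli RNA polymerase. At 37 °C, a hybridised Cy3 probe tracked them while glucosamine-6-phosphate (40 μM to 10 mM) in HEPES/KCl/Mg(OAc)2 buffer flowed in and tiles were imaged over ~14 h. Per-tile medians of signals normalised to baseline and to non-cleaving reference variants were fit to one- or two-exponential decays, giving kobs. kcat and KM came from weighted Michaelis–Menten fits across concentrations.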

[2] = variants of: B1; experiment: self-cleavage kobs at 10000 uM GlcN6P; higher = faster cleavage; RNA array
Procedure, shortened: as §1

[3] = variants of: B1; experiment: self-cleavage kobs at 160 uM GlcN6P; higher = faster cleavage; RNA array
Procedure, shortened: as §1

[4] = variants of: B1; experiment: self-cleavage kobs at 640 uM GlcN6P; higher = faster cleavage; RNA array
Procedure, shortened: as §1

[5] = variants of: B1; experiment: self-cleavage kobs at 2500 uM GlcN6P; higher = faster cleavage; RNA array
Procedure, shortened: as §1

Variant	self-cleavage kobs at 40 uM GlcN6P [1] [s⁻¹]	self-cleavage kobs at 10000 uM GlcN6P [2] [s⁻¹]	self-cleavage kobs at 160 uM GlcN6P [3] [s⁻¹]	self-cleavage kobs at 640 uM GlcN6P [4] [s⁻¹]	self-cleavage kobs at 2500 uM GlcN6P [5] [s⁻¹]
G37C G43A C61A	< 1e-05	< 1e-05			
A36C G44U U54G G66A C71A	< 1e-05	< 1e-05			
G32C A36G C61U U69A	< 1e-05				
G38C G41U G60C	< 1e-05				
A36G A39G	< 1e-05		< 1e-05	< 1e-05	
A36G A39U A48U C70G	< 1e-05	< 1e-05	< 1e-05	< 1e-05	< 1e-05
G32U G41C	< 1e-05		< 1e-05		
G35U A48U	< 1e-05	< 1e-05	< 1e-05	< 1e-05	
G35C C58A G62U	< 1e-05				
G32C A53U G66U	< 1e-05				
G32U G41A G66C C68G	< 1e-05	< 1e-05	< 1e-05		< 1e-05
A36C G37A	< 1e-05	< 1e-05			
A36U G40A	< 1e-05	< 1e-05			
G37C G41U	< 1e-05	< 1e-05	< 1e-05	< 1e-05	< 1e-05
G35U A53U C61G C68G	0.000579 ± 0.00022	0.000516 ± 0.0002			
U31G C68A	< 1e-05			3.5e-05 ± 1.6e-05	8.49e-05 ± 1.9e-05
C34A G38U U69A	< 1e-05				
G35A G59C	< 1e-05	< 1e-05	< 1e-05	< 1e-05	< 1e-05
A36G G62C C67U	< 1e-05	< 1e-05			
G32C G35A G51U	< 1e-05	< 1e-05			< 1e-05
C34U G41C G59A A64G	< 1e-05		< 1e-05	< 1e-05	
U31G C34U G59A	< 1e-05	< 1e-05		< 1e-05	< 1e-05
G38A C50U A53G G62U	< 1e-05				
G35C U69A C70G	< 1e-05				

Variant	self-cleavage kobs at 40 uM GlcN6P [1] [s⁻¹]	self-cleavage kobs at 10000 uM GlcN6P [2] [s⁻¹]	self-cleavage kobs at 160 uM GlcN6P [3] [s⁻¹]	self-cleavage kobs at 640 uM GlcN6P [4] [s⁻¹]	self-cleavage kobs at 2500 uM GlcN6P [5] [s⁻¹]
C34U C50G A53U C68G	8.23e-05 ± 1.6e-05	0.000111 ± 1.6e-05		0.000541 ± 0.00016	
G35A A39G U57C	< 1e-05	< 1e-05			< 1e-05
C34U A48G	< 1e-05	< 1e-05	< 1e-05	< 1e-05	< 1e-05
G35C C71G	< 1e-05		< 1e-05	< 1e-05	
U31A G51A U56A C58U G63U U65G	< 1e-05				
A33G C50A A53C G60C	< 1e-05				
A33U G43A	< 1e-05	< 1e-05	< 1e-05	< 1e-05	< 1e-05
G38C G43U	< 1e-05	< 1e-05	< 1e-05	< 1e-05	< 1e-05
G37C U46C	< 1e-05				
G35A U49G	< 1e-05				
G38U A42C	< 1e-05	< 1e-05	< 1e-05		
C34G A42U	< 1e-05	< 1e-05	< 1e-05	< 1e-05	< 1e-05
G37U A42G	< 1e-05			< 1e-05	< 1e-05
A36U G44C U47G	< 1e-05	< 1e-05			
G32A C34U C50U C61A G66A	4.94e-05 ± 2.4e-05				
G37U A53U U55A	< 1e-05				
A33U A48G A52U	< 1e-05				
A36U G37C G41C U55G	< 1e-05	< 1e-05		< 1e-05	
G38C A48U U65A	< 1e-05				
G35C G41U G51C	< 1e-05				< 1e-05
G32C G37C C58U	< 1e-05				
G35A U56C A64U	< 1e-05	< 1e-05		< 1e-05	
G32C G37C A48U G59C	< 1e-05				
A33G G40U G59U	< 1e-05		< 1e-05	< 1e-05	< 1e-05

Variant	self-cleavage kobs at 40 uM GlcN6P [1] [s⁻¹]	self-cleavage kobs at 10000 uM GlcN6P [2] [s⁻¹]	self-cleavage kobs at 160 uM GlcN6P [3] [s⁻¹]	self-cleavage kobs at 640 uM GlcN6P [4] [s⁻¹]	self-cleavage kobs at 2500 uM GlcN6P [5] [s⁻¹]
U31C C34U U65C	< 1e-05	< 1e-05			< 1e-05
G35A U49G C71A	< 1e-05	< 1e-05			
G32C A39G G43A	< 1e-05				
C34U U55A G60U	< 1e-05			< 1e-05	
A33G A39U G41C	< 1e-05	< 1e-05			
G32U A48U C61U G63U C67U	< 1e-05	< 1e-05		< 1e-05	
C34G U54A	< 1e-05	< 1e-05	< 1e-05	< 1e-05	< 1e-05
G37C U57A	< 1e-05	< 1e-05		< 1e-05	
A33U U47A U54C	< 1e-05	7.82e-05 ± 1.8e-05			4.24e-05 ± 2e-05
A33C G43C	< 1e-05	< 1e-05	< 1e-05	< 1e-05	< 1e-05
U31G U69A	2.79e-05 ± 1.1e-05	0.000103 ± 1.4e-05	9.26e-05 ± 3.7e-05	0.00012 ± 3.2e-05	0.000288 ± 7.4e-05
A36G A39U C68U	< 1e-05	< 1e-05			
G37C G63A	< 1e-05	< 1e-05		< 1e-05	< 1e-05
C34G A64C U65A	< 1e-05				
G38U C70U C71G	8.76e-05 ± 2.7e-05				
U31G U47C	2.84e-05 ± 1.3e-05			0.000197 ± 4.8e-05	0.000501 ± 0.00015
A36G U57A	< 1e-05	< 1e-05	< 1e-05	< 1e-05	< 1e-05
G37C A48C	< 1e-05	< 1e-05		< 1e-05	< 1e-05
A36U C58G C70A	8.19e-05 ± 2.5e-05	5.18e-05 ± 1.5e-05	0.000111 ± 3.1e-05		4.59e-05 ± 2.3e-05
G38C G44U	< 1e-05	< 1e-05	< 1e-05	< 1e-05	< 1e-05
U31A G37A C50G A53U C67U	5.38e-05 ± 1.9e-05				
G35U G41U	< 1e-05	< 1e-05	< 1e-05		< 1e-05
G37A G51A	< 1e-05	< 1e-05		< 1e-05	
C34G G43C U47A U49C U55G	< 1e-05	< 1e-05			

Variant	self-cleavage kobs at 40 uM GlcN6P [1] [s⁻¹]	self-cleavage kobs at 10000 uM GlcN6P [2] [s⁻¹]	self-cleavage kobs at 160 uM GlcN6P [3] [s⁻¹]	self-cleavage kobs at 640 uM GlcN6P [4] [s⁻¹]	self-cleavage kobs at 2500 uM GlcN6P [5] [s⁻¹]
A33U U56A C71A	< 1e-05				
G37U C71U	< 1e-05			< 1e-05	
A36C G63A	< 1e-05			< 1e-05	
U31C G35U A39C G44U U55A	< 1e-05	< 1e-05	< 1e-05	< 1e-05	< 1e-05
A33C C34G C71U	< 1e-05				< 1e-05
G35U U45A U57C C67A C68A	< 1e-05	< 1e-05			
G35A C71U	< 1e-05	< 1e-05	< 1e-05	< 1e-05	< 1e-05
G37U A52U U57A	< 1e-05				
A36U A64G U69A C71G	6.16e-05 ± 2.9e-05				
G38U G43C A64U	< 1e-05				< 1e-05
A36C A52U	< 1e-05	< 1e-05			
A36C G41A C68A	< 1e-05	< 1e-05		< 1e-05	< 1e-05
G35C U46G A48G U65C C68A	< 1e-05				
C34A A52U	< 1e-05	< 1e-05		< 1e-05	
G35U U45A C50G	< 1e-05				
G32A G43C	< 1e-05		< 1e-05		< 1e-05
G32A G40U C67G	< 1e-05			< 1e-05	< 1e-05
A33U G44C C68U	< 1e-05	< 1e-05			
C34A A42G	< 1e-05		< 1e-05	< 1e-05	< 1e-05
A36C G41A	< 1e-05	< 1e-05	< 1e-05	< 1e-05	< 1e-05
C34A A64U	< 1e-05	< 1e-05	< 1e-05	< 1e-05	
C34A A64C	< 1e-05	< 1e-05		< 1e-05	< 1e-05
G35C G51A C68U	< 1e-05				
G37U G40C G44U	< 1e-05				
